Measurements from publication PMC2913408 (Biochemistry, 2010).

Key:
[1] = substrate: O=C(O)/C(O)=C/c1ccccc1; experiment: purified protein; conditions: 10 mM potassium phosphate, pH 7.3, 24 °C
[2] = substrate: O=C(O)/C=C/C=C(\O)C(=O)O; experiment: purified protein; assay type: biochemical, Chloroflexus aurantiacus; conditions: 10 mM potassium phosphate, pH 7.3, 24 °C

B1: hh4-OT (heterohexamer 4-oxalocrotonate tautomerase) (Chloroflexus aurantiacus J-10-fl) (protein)
chain 1: MLLLRITMLEGRSTEQKAELARALSAAAAAAFDVPLAEVRLIIQEVPPTHWTVGGISMAELRQQASTSTQGQ
chain 2: PMLEVFYSGDRPPDRTRKQAFAAEASAIFQRVIGTPPGRLQLIIQIVSPENTLAVIDLDRPDSDTTAEPDQQ
Km [1]: 121 ± 20 µM | kcat [1]: 13 s⁻¹ | kcat/Km [1]: 110000 M⁻¹ s⁻¹ | Km [2]: 70 ± 8 µM | kcat [2]: 3000 ± 100 s⁻¹ | kcat/Km [2]: 4.3e+07 M⁻¹ s⁻¹
